Assay [1] concerns the target human ρ1 GABAC receptor (human) (UniProt P24046). Briefly: flow cytometry on SHp5-ρ1 cells, antibody at 1/1,000 dilution. For orientation: A flow cytometer gives signals particle by particle.
Assay [2] shares this target. Briefly: flow cytometry on SHp5-ρ1 cells, antibody at 1/25 or 1/50 dilution.

UniProt P24046, sequence (P24046 22-479): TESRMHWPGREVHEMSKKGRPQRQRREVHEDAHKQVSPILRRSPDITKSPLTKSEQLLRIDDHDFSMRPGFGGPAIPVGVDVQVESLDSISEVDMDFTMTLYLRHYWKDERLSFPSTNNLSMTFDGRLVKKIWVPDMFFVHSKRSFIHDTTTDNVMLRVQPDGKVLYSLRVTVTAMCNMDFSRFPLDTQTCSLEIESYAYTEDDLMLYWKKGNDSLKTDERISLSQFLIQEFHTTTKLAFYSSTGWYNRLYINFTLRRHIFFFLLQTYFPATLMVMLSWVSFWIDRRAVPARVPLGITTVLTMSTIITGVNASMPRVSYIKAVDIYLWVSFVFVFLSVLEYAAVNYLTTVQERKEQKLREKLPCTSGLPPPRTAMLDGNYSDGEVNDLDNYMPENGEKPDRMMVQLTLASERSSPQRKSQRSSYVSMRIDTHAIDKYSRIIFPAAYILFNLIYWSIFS

As for “affinity-purified GABAC Ab N-14 (antibody)”, the percent positive cells was determined as 47% in assay [1] and 63% in assay [2].

For the origin of these results see patent US20090269786A1.
